Measured values: PMC8605244 (The Journal of Biological Chemistry, 2021)

B1: RASSF5 RA domain mutant D2 (RTRHWKR) (designed binder)
chain: EIKQKIDSYNSRERTRHGMKLSEDGTYTGWIKVHLKLRRPVTVPAGIRPQSIYDAIKEVNPAATTDKRTSFYLPLDAIKQLKISSTTTVSEVIQGLLKKFRVVDNPQKFALFKRIHKDGQVLFQKLSIADYPLYLRLLAGPDTDVLSFVLKENETGEV
notes: RASSF5 (NORE1A) RA domain, residues 205-362, with RTRHWKR at positions 218, 219, 220, 221, 234, 286, 305 (WT: KHCLFHM); The numbers follow PDB 3DDC; Selected by yeast surface display against Ras-GDP; source: E. coli BL21(DE3), pET28a, purified (Ni beads, Superdex75 SEC)
B2: RASSF5 RA domain mutant D3 (FRKFWHK) (designed binder)
chain: EIKQKIDSYNSREFRKFGMKLSEDGTYTGWIKVHLKLRRPVTVPAGIRPQSIYDAIKEVNPAATTDKRTSFYLPLDAIKQLHISSTTTVSEVIQGLLKKFKVVDNPQKFALFKRIHKDGQVLFQKLSIADYPLYLRLLAGPDTDVLSFVLKENETGEV
notes: RASSF5 (NORE1A) RA domain, residues 205-362, with FRKFWHK at positions 218, 219, 220, 221, 234, 286, 305 (WT: KHCLFHM); The numbers follow PDB 3DDC; Selected by yeast surface display against Ras-GDP; source: E. coli BL21(DE3), pET28a, purified (Ni beads, Superdex75 SEC)
B3: RASSF5 RA domain mutant T3 (WSRLYKR) (designed binder)
chain: EIKQKIDSYNSREWSRLGMKLSEDGTYTGYIKVHLKLRRPVTVPAGIRPQSIYDAIKEVNPAATTDKRTSFYLPLDAIKQLKISSTTTVSEVIQGLLKKFRVVDNPQKFALFKRIHKDGQVLFQKLSIADYPLYLRLLAGPDTDVLSFVLKENETGEV
notes: RASSF5 (NORE1A) RA domain, residues 205-362, with WSRLYKR at positions 218, 219, 220, 221, 234, 286, 305 (WT: KHCLFHM); The numbers follow PDB 3DDC; Selected by yeast surface display against Ras-GTP; source: E. coli BL21(DE3), pET28a, purified (Ni beads, Superdex75 SEC)
B4: RASSF5 RA domain mutant T2 (YRRLYKR) (designed binder)
chain: EIKQKIDSYNSREYRRLGMKLSEDGTYTGYIKVHLKLRRPVTVPAGIRPQSIYDAIKEVNPAATTDKRTSFYLPLDAIKQLKISSTTTVSEVIQGLLKKFRVVDNPQKFALFKRIHKDGQVLFQKLSIADYPLYLRLLAGPDTDVLSFVLKENETGEV
notes: RASSF5 (NORE1A) RA domain, residues 205-362, with YRRLYKR at positions 218, 219, 220, 221, 234, 286, 305 (WT: KHCLFHM); The numbers follow PDB 3DDC; Selected by yeast surface display against Ras-GTP; source: E. coli BL21(DE3), pET28a, purified (Ni beads, Superdex75 SEC)

Legend:
[1] = biological target: T1, H-Ras, biotinylated, loaded with a nonhydrolyzable GTP analog (Ras-GTP) or with GDP (Ras-GDP) (UniProt P01112 1-189, biotin on the AVI-tag (attached in vivo by BirA)); assay: SPR; OpenSPR, streptavidin chip; biotinylated Ras in the GDP-bound state immobilised at 50 ug/ml; RASSF5 variants injected at 1.25-20 uM; Ras buffer (Tris 20 mM, NaCl 100 mM, MgCl2 5 mM, pH 7.5) with 0.1% Tween20 and 0.5% BSA; 30 ul/min; conditions: both partners purified
T1 construct: H-Ras; One construct used in two nucleotide states; also called biotinylated-Ras; not shown: His tag, N-terminal, cleaved; AVI-tag, C-terminal, kept

[2] = biological target: T1, H-Ras, biotinylated, loaded with a …; assay: SPR; OpenSPR, streptavidin chip; biotinylated Ras in the GTP-bound state (nonhydrolyzable analog) immobilised at 50 ug/ml; RASSF5 variants injected at 1.25-20 uM; Ras buffer (Tris 20 mM, NaCl 100 mM, MgCl2 5 mM, pH 7.5) with 0.1% Tween20 and 0.5% BSA; 30 ul/min; conditions: both partners purified

T1 sequence (P01112 whole entry): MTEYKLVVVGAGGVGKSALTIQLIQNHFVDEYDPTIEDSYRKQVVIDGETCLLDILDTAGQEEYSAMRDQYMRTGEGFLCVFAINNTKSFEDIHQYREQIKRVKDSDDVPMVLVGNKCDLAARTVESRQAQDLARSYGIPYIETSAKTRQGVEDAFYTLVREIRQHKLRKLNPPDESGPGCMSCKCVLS

Binder | Kd [1] | Kd [2]
B1 | 1600 ± 300 nM | 
B2 | 1600 ± 200 nM | 
B3 | 1600 ± 300 nM | 1000 ± 150 nM
B4 | 3000 ± 500 nM | 
